Experimental data from patent US20170152308A1 (Biogen, published 2017).
Like-named read-outs stand apart in the source and are kept apart here.

Experiments:
[1] = biological target: T1, 6xHis-SUMO-TDP-43 (220-414) (human, UniProt Q13148 220-414); test: capture ELISA, antigen held by anti-6xHis antibody
T1 construct: Captured on the plate by an anti-6xHis antibody; also called 6xHis/SUMO tagged truncated TDP-43; not shown: N-terminal 6xHis and SUMO tags from a modified pET19-b vector
Procedure: (§1) Non-specific binding sites were blocked for 1 hr at RT with PBS containing 1% BSA (Sigma) and 0.05% Tween-20 (Fisher Scientific). 6×His-SUMO-TDP43 proteins at a concentration of 1.7 μM were allowed to bind to antibody-coated plates for 1 hr at RT in PBS buffer containing 1% BSA, 300 mM arginine and 0.1% PEG 5000, pH 7.5. Plates were incubated for 1 hr at RT with human antibodies of present invention, titrated in a three-fold dilution series, followed by HRP conjugated anti-human IgG Fc γ (Jackson ImmunoResearch) in PBST containing 1% BSA. HRP activity was measured in a standard colorimetric assay. EC₅₀ values were calculated using a four-parameter logistic curve fit on Softmax pro software (Molecular Devices).
(§2) We measured the binding affinity of the human-derived TDP-43 specific antibodies provided herein to properly folded 6×His/SUMO tagged TDP-43 using a capture ELISA in which native TDP-43 was immobilized without direct adsorption on the surface of the ELISA plate. This was achieved by immobilizing an anti 6×His antibody which then captured native TDP-43. […] After this immobilization step, binding by human antibodies was tested in regular buffers without interference of TDP-43 aggregation.

[2] = biological target: T2, 6xHis-SUMO-TDP-43 (1-414), properly folded full length (human, UniProt Q13148 1-414); test: capture ELISA, antigen held by anti-6xHis antibody
T2 construct: Purified with KSCN and arginine, monomeric; captured on the plate by an anti-6xHis antibody; also called folded full-length TDP-43; 6xHis/SUMO tagged full length TDP-43; not shown: N-terminal 6xHis and SUMO tags from a modified pET19-b vector
T2 sequence (Q13148 whole entry): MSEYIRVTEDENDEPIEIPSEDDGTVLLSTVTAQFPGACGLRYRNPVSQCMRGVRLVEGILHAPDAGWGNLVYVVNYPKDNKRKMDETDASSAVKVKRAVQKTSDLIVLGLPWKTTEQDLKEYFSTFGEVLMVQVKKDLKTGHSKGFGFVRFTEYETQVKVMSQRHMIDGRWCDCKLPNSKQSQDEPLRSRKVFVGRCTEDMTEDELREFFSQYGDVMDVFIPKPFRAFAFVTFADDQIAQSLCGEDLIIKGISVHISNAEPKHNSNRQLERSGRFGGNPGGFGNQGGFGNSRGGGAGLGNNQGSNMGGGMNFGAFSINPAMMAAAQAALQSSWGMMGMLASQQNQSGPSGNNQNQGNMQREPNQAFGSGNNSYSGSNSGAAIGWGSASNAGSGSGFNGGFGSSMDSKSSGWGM
Procedure: as §1, §2

[3] = biological target: T3, recombinant full-length His-tagged human TDP-43 (2-414) (human, UniProt Q13148 2-414); test: direct ELISA, coated antigen
T3 construct: Amino terminal His tag, made in E. coli, purified in 8 M urea; also called full length TDP-43; full-length TDP-43
Procedure: (§3) The half maximal effective concentration (EC₅₀) of the human-derived TDP-43-specific antibodies for human TDP-43 and their target target-specificity was determined substantially as described in Example 2 above. Briefly, 96 well microplates (Corning) were coated with recombinant full length TDP-43 (Biogen Idec, USA), Escherichia coli extract and BSA (Sigma, Buchs, Switzerland), diluted to a concentration of 5 μg/ml in carbonate ELISA coating buffer (pH 9.6) overnight at 4° C. […] Non-specific binding sites were blocked for 1 hr. at room temperature with PBS containing 2% BSA (Sigma, Buchs, Switzerland). Human TDP-43-specific antibodies were diluted to the indicated concentrations and incubated 1 hr. at room temperature. Binding was determined using a donkey anti-human IgGγ-specific secondary antibody conjugated with HRP (Jackson ImmunoResearch, USA), followed by measurement of HRP activity in a standard colorimetric assay. EC₅₀ values were estimated by a non-linear regression using GraphPad Prism software (San Diego, USA).

[4] = biological target: T3, recombinant full-length His-tagged …; test: direct ELISA, coated antigen; remark: listed apart in the source
Procedure: as §3

[5] = biological target: T4, His-huTDP-43 domain I (amino acid residues 2-106) (human); test: direct ELISA, His-tagged TDP-43 fragments coated at 6.6 ug/ml, OD 450
T4 construct: Amino terminal His-tagged fragment, E. coli; also called N-terminal domain
T4 chain: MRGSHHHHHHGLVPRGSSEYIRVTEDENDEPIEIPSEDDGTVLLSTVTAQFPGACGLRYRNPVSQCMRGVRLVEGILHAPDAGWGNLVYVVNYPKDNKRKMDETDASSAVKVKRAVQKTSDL
Procedure: (§4) Non-specific binding sites were blocked for 1 hr. at room temperature with PBST containing 2% BSA (Sigma, Buchs, Switzerland). Antibodies were incubated 1 hr. at room temperature. Binding was determined using either a donkey anti-human IgGγ-specific antibody conjugated with HRP (Jackson ImmunoResearch, USA) or a goat-anti mouse IgG (H+L)-specific secondary antibody conjugated with HRP (Jackson ImmunoResearch, USA)., followed by measurement of HRP activity in a standard colorimetric assay.

[6] = biological target: T5, His-huTDP-43 domain III (amino acid residues 183-273) (human); test: as above
T5 construct: Amino terminal His-tagged fragment, E. coli
T5 chain: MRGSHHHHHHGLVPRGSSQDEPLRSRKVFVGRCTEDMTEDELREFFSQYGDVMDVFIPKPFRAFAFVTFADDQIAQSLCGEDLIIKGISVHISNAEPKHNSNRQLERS
Procedure: as §4

[7] = biological target: T6, His-huTDP-43 domain II (amino acid residues 99-204) (human); test: as above
T6 construct: Amino terminal His-tagged fragment, E. coli
T6 chain: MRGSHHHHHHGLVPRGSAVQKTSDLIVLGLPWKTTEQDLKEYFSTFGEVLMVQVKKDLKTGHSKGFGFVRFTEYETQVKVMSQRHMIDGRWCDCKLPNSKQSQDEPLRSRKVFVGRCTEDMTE
Procedure: as §4

[8] = biological target: T4, His-huTDP-43 domain I (amino acid …); test: Western blot, 300 ng recombinant protein per lane, primary antibody 10 nM
Procedure: (§5) Non-specific binding sites were blocked for 1 hr. at room temperature with PBST containing 2% BSA (Sigma, Buchs, Switzerland). Blots were incubated overnight with primary antibodies (10 nM) followed by either a donkey anti-human IgGγ-specific secondary antibody conjugated with HRP (Jackson ImmunoResearch, USA) or a goat-anti mouse IgG (H+L)-specific secondary antibody conjugated with HRP (Jackson ImmunoResearch, USA). Blots were developed using ECL and ImageQuant 350 detection (GE Healthcare, Otelfingen, Switzerland).

[9] = biological target: T5, His-huTDP-43 domain III (amino acid …); test: as above
Procedure: as §5

[10] = biological target: T6, His-huTDP-43 domain II (amino acid …); test: as above
Procedure: as §5

T1 sequence (Q13148 220-414): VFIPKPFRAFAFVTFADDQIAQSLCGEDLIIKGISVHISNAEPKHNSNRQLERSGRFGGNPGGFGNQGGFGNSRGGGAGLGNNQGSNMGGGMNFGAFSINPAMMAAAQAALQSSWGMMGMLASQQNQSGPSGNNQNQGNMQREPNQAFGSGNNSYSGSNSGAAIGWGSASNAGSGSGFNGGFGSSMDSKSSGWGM

B1: NI-205.25F3 (antibody, human IgG1, V domains shown)
VH: QVQLVESGGGVVQPGRSLRLSCAASGFTFSNYVMYWVRQAPGKGLEWVAFISYDGSNKYYPDSVKGRFTISRDNSMNTLYLQMDSLRAEDTAVYYCARDTYQYDSSTYYPYFYYYGMDVWGQGTTVTVSS
VL: QSALTQPASVSGSPGQSITISCIGTSSDVGGYNYVSWYQQHPGKAPKLMIYEVSNRPSGVSSRFSGSKSGNTASLTISGLQSEDEADYYCSSFASSSTSVTFGGGTKLTVL
notes: Human-derived
For B1, the EC50 [1] was > 100 nM, the EC50 [2] was > 120 nM and the EC50 [3] was 13.3 nM. The EC50 [4] was 13.3 nM, the binding result [5] was “no binding” and the binding result [6] was “no binding”. B1: no binding [7].

B2: NI-205.10D3 (antibody, human IgG1, V domains shown)
VH: QVQLQESGPGLVKPSETLSLTCTVSGGSITDYYWSWIRQPPGKGLEWIGYIHDSGTTRYNPSLTSRLSMSLDTSTNQVSLRLTSVTAADTAVYYCAKVPDYWGQGTLVTVSS
VL: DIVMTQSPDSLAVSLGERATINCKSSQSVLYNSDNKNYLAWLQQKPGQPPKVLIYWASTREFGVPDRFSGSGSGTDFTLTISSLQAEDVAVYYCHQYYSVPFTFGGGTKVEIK
notes: Human-derived
B2: no binding (tested: 10 nM) [8]; no binding (tested: 10 nM) [9]; no binding (tested: 10 nM) [10]. The EC50 [1] was 20.5 nM, the EC50 [2] was > 90 nM and the EC50 [3] was 7.3 nM.

B3: NI-205.8A2 (antibody, human IgG1, V domains shown)
VH: QVQLVESGGGVVQPGKSLRLSCAASGFTFRDHGMHWVRQAPGKGLEWVAVIWLDGSSRFYADSVEGRFTISRDNSKNTLYLQLTSLRAEDTAIYYCARDRVASEGTAFDVWGQGTMVTVSS
VL: EIVLTQSPATLSLSPGERATLSCWASQNVNHYLVWYQQRPGQAPRLLLYDTSVRAAGIPARFIGSGSGTHFTLTISSLEPEDSAVYYCQHRSDWTFGQGTKVEIK
notes: Human-derived
In the case of B3, the binding result [9] is reported as “no binding (tested: 10 nM)”, the EC50 [1] is reported as 4.6 nM and the EC50 [2] is reported as 34 nM. The EC50 [3] was 7.2 nM, the EC50 [4] was 7.2 nM and the binding result [5] was “no binding”.

B4: NI-205.31D2 (antibody, human IgG1, V domains shown)
VH: EVQLLESGGGSVQPGGSLRLSCAASGFTFSTYVMSWVRQAPGKGLEWVSAISRRGGSTYYADSVKGRFTISRDNSKNTLYLQMNSLRAEDTAVYYCAKDRWLTGRTGGVFDIWGQGTMVTVSS
VL: not shown
notes: Human-derived
With B4 the EC50 [1] was 19.4 nM, the EC50 [2] was 41 nM and the EC50 [3] was > 41 nM.

B5: NI-205.8F8 (antibody, human IgG1, V domains shown)
VH: EVQLLESGGGLVQPGGSLRLSCAASGYTFSYYAMSWVRQAPGKGLEWVSTIGDSGSTTHYADSVKGRFTISRDNSKSTLYLQMNSLRAEDTAVYYCAKGLGPVAAIGDYWGQGTLVTVSS
VL: QSVLTQPPSASGTPGQRVTISCSGSSSNIGSNNVYWYQQLPGTAPKLLVYRNNQRPSGVPDRVSGSKSGSSASLAISGLRSEDEADYYCAAWDDSLRGYVFGTGTKVTVL
notes: Human-derived
For B5, the EC50 [2] was > 94 nM and the binding result [3] was “no binding”.

B6: NI-205.14H5 (antibody, human IgG1, V domains shown)
VH: EVQLLESGGGLVQPGGSLRLSCAASGFTFRNYAMAWVRQAPGKGLEWVSAIPARGDKTYYADSVRGRFTISRDISKSALYLQMNSLRVEDTAVYYCAKAHHLYNKNFDYWGQGTLVTVSS
VL: EIVLTQSPGTLSLSPGETVTLSCRASQSVSSSNLAWYQQKPGQAPRLLIYGASSRATGIPDRFSGRGSGTDFTLTISRLEPEDFAVYYCQHYGTFGQGTKVDIK
notes: Human-derived
B6 was tested, and the EC50 [2] was > 100 nM and the EC50 [3] was > 100 nM.

B7: NI-205.10H7 (antibody, human IgG1, V domains shown)
VH: QVQLVESGGGVVQPGRSLRLSCAASGFTFSNYAMHWVRQAPGKGLEWVAVIWYDGSKKYYGDSVKGRFTISRDNPKNTLYLQMNSLRVEDTAIYYCVPDAFDMWGQGTMVTVSS
VL: DIVMTQTPLSSPVTLGQPASISCRSSQSLVHTDGKTYLSWLHQRPGQPPRPLIYKMSKRFSGVPDRFSGSGAETEFTLKISRVEAEDVGIYYCLQLTQFPITFGQGTRLEIK
notes: Human-derived
B7: no binding (tested: 10 nM) [8]; no binding (tested: 10 nM) [9]; no binding (tested: 10 nM) [10]. It also gave an EC50 [1] of 6.45 nM, an EC50 [2] of 30.9 nM and an EC50 [3] of 15.3 nM.

B8: NI-205.15F12 (antibody, human IgG1, V domains shown)
VH: QVQLVQSGTAVKKPGASVKVSCKASGFSFNGYYMHWVRQAPGQGLEWMGVINPNGGSTNYAQKFKGRITMSADTPARSVSMELGSLRSDDTAMYYCARLPVNIEVLDLWGQGTLVTVSS
VL: DIVMTQSPDSLAVSLGERATINCRSSQTVLFSSNDKNYLAWYQQKPGQPPKLLIYWASVRASGVPDRFSGSGSGTDFSLTINGLQAEDVAVYYCQQSSTAPLTFGGGTKVEIK
notes: Human-derived
B8: no binding (tested: 10 nM) [8]; no binding (tested: 10 nM) [9]; no binding (tested: 10 nM) [10]. The EC50 [1] was 9.7 nM, the EC50 [2] was 16.3 nM and the EC50 [3] was 7.2 nM. The EC50 [4] was 7.2 nM.

B9: NI-205.36D5 (antibody, human IgG1, V domains shown)
VH: QVQLVESGGGVVQPGRSLRLSCAASRFTFSSYGMHWVRQAPGKGLEWVALIYYDATQKYYADSVKGRFTISRDNSKNALYLQMTSLRADDTAVYYCARDLPYHYHRSASFAPADTWGQGTLVTVSS
VL: EIVLTQSPGTLSLSPGERATLSCRASQTISNNYLAWYQQKPGQAPRLLVYAASSRATGIPDRFYGSGSGADFTLTISRLEPEDFVVYYCQQYGSSPITFGQGTRLEIK
notes: Human-derived
B9 was tested, and the EC50 [1] was > 60 nM, the EC50 [2] was > 72 nM and the EC50 [3] was > 72 nM.
